Source: the supplement of paper PMC9112550, “Optimization of the antimicrobial peptide Bac7 by deep mutational scanning” (BMC Biology, 2022)
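Also: peptides expressed intracellularly from a pBAD plasmid library in pooled LB shake-flask culture, induced with 0.3% L-arabinose, DNA abundance read by NGS, three biological replicates, DESeq2 with apeglm shrinkage.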

These sequences were tested on Escherichia coli TOP10 (assay: shrunken log2 fold change of peptide-encoding DNA abundance (4.5 h post-induction vs induction); higher = less antimicrobial activity (less host growth inhibition)). Details: time post-induction: 4.5 h; library: site-saturation at positions 5, 18, 19, 20.
In the case of RRIRTRPPRLPRPRPRPAWPPRP, the “shrunken log2 fold change” value is reported as 0.444.
In the case of RRIRHRPPRLPRPRPRPRADPRP, the “shrunken log2 fold change” value is reported as 0.185.
For RRIRFRPPRLPRPRPRPLWPPRP, the “shrunken log2 fold change” value was 0.264.
With RRIRLRPPRLPRPRPRPPYEPRP the “shrunken log2 fold change” value was -0.468.
With RRIRQRPPRLPRPRPRPRRLPRP the “shrunken log2 fold change” value was 0.752.
In the case of RRIRSRPPRLPRPRPRPHCAPRP, the “shrunken log2 fold change” value is reported as -0.0311.
For RRIRHRPPRLPRPRPRPIKTPRP, the “shrunken log2 fold change” value was -0.00476.
With RRIRCRPPRLPRPRPRPKKHPRP the “shrunken log2 fold change” value was -0.217.
For RRIRHRPPRLPRPRPRPDRNPRP, the “shrunken log2 fold change” value was -0.0482.
With RRIRIRPPRLPRPRPRPIIAPRP the “shrunken log2 fold change” value was -0.389.
RRIRERPPRLPRPRPRPEFTPRP was tested, and the “shrunken log2 fold change” value was 0.0663.
With RRIRDRPPRLPRPRPRPYGQPRP the “shrunken log2 fold change” value was -0.0816.
In the case of RRIRRRPPRLPRPRPRPVDWPRP, the “shrunken log2 fold change” value is reported as 0.577.
With RRIRNRPPRLPRPRPRPCWGPRP the “shrunken log2 fold change” value was -0.315.
For RRIRTRPPRLPRPRPRPWCKPRP, the “shrunken log2 fold change” value was -0.202.
For RRIRERPPRLPRPRPRPWRTPRP, the “shrunken log2 fold change” value was -0.259.
For RRIRLRPPRLPRPRPRPEIFPRP, the “shrunken log2 fold change” value was 0.161.
RRIRQRPPRLPRPRPRPVPQPRP was tested, and the “shrunken log2 fold change” value was 0.0925.
For RRIRGRPPRLPRPRPRPQAEPRP, the “shrunken log2 fold change” value was 1.08.
In the case of RRIRERPPRLPRPRPRPQSKPRP, the “shrunken log2 fold change” value is reported as -0.769.
RRIRKRPPRLPRPRPRPLIRPRP was tested, and the “shrunken log2 fold change” value was -0.0949.
With RRIRPRPPRLPRPRPRPCYGPRP the “shrunken log2 fold change” value was 0.0701.
RRIRLRPPRLPRPRPRPMGLPRP was tested, and the “shrunken log2 fold change” value was 0.0182.
For RRIRVRPPRLPRPRPRPDAEPRP, the “shrunken log2 fold change” value was 0.431.
RRIRWRPPRLPRPRPRPFSEPRP was tested, and the “shrunken log2 fold change” value was -0.186.
With RRIRSRPPRLPRPRPRPQNGPRP the “shrunken log2 fold change” value was -0.535.
In the case of RRIRHRPPRLPRPRPRPKELPRP, the “shrunken log2 fold change” value is reported as -0.00676.
For RRIRERPPRLPRPRPRPRPEPRP, the “shrunken log2 fold change” value was 0.314.
RRIRSRPPRLPRPRPRPMRWPRP was tested, and the “shrunken log2 fold change” value was 0.664.
In the case of RRIRHRPPRLPRPRPRPMFSPRP, the “shrunken log2 fold change” value is reported as -0.256.
With RRIRFRPPRLPRPRPRPHWKPRP the “shrunken log2 fold change” value was -0.162.
RRIRMRPPRLPRPRPRPKEHPRP was tested, and the “shrunken log2 fold change” value was 0.617.
With RRIRFRPPRLPRPRPRPGQPPRP the “shrunken log2 fold change” value was 0.199.
With RRIRPRPPRLPRPRPRPLWEPRP the “shrunken log2 fold change” value was 0.0604.
RRIRMRPPRLPRPRPRPMPPPRP was tested, and the “shrunken log2 fold change” value was 1.07.
With RRIRQRPPRLPRPRPRPWLGPRP the “shrunken log2 fold change” value was -0.0417.
RRIRARPPRLPRPRPRPCSWPRP was tested, and the “shrunken log2 fold change” value was 0.0664.
RRIRNRPPRLPRPRPRPSPMPRP was tested, and the “shrunken log2 fold change” value was -0.0245.
With RRIRHRPPRLPRPRPRPEQPPRP the “shrunken log2 fold change” value was -0.0288.
In the case of RRIRFRPPRLPRPRPRPKLNPRP, the “shrunken log2 fold change” value is reported as -0.193.
With RRIRWRPPRLPRPRPRPCVDPRP the “shrunken log2 fold change” value was 0.0275.
With RRIRARPPRLPRPRPRPKCDPRP the “shrunken log2 fold change” value was 0.39.
With RRIRDRPPRLPRPRPRPCPIPRP the “shrunken log2 fold change” value was -0.00104.
For RRIRQRPPRLPRPRPRPEQGPRP, the “shrunken log2 fold change” value was 0.0169.
With RRIRARPPRLPRPRPRPLNCPRP the “shrunken log2 fold change” value was -0.08.
In the case of RRIRQRPPRLPRPRPRPIRDPRP, the “shrunken log2 fold change” value is reported as -0.161.
RRIRLRPPRLPRPRPRPFEHPRP was tested, and the “shrunken log2 fold change” value was 0.0204.
In the case of RRIRCRPPRLPRPRPRPYYFPRP, the “shrunken log2 fold change” value is reported as -1.08.
For RRIRQRPPRLPRPRPRPSVNPRP, the “shrunken log2 fold change” value was -0.642.
With RRIRQRPPRLPRPRPRPPFEPRP the “shrunken log2 fold change” value was 0.333.
In the case of RRIRWRPPRLPRPRPRPMQAPRP, the “shrunken log2 fold change” value is reported as 1.83.
For RRIRYRPPRLPRPRPRPRWSPRP, the “shrunken log2 fold change” value was -0.225.
For RRIRDRPPRLPRPRPRPNMHPRP, the “shrunken log2 fold change” value was 1.35.
In the case of RRIRIRPPRLPRPRPRPNRNPRP, the “shrunken log2 fold change” value is reported as -1.1.
For RRIRQRPPRLPRPRPRPLIIPRP, the “shrunken log2 fold change” value was -0.781.
In the case of RRIRTRPPRLPRPRPRPYPFPRP, the “shrunken log2 fold change” value is reported as -0.0603.
With RRIRGRPPRLPRPRPRPMLGPRP the “shrunken log2 fold change” value was 1.19.
RRIRKRPPRLPRPRPRPMWLPRP was tested, and the “shrunken log2 fold change” value was 0.642.
RRIRTRPPRLPRPRPRPTLAPRP was tested, and the “shrunken log2 fold change” value was 0.54.
RRIRYRPPRLPRPRPRPFEIPRP was tested, and the “shrunken log2 fold change” value was -0.17.
RRIRSRPPRLPRPRPRPCGAPRP was tested, and the “shrunken log2 fold change” value was 0.327.
For RRIRGRPPRLPRPRPRPSWQPRP, the “shrunken log2 fold change” value was 0.109.
RRIRDRPPRLPRPRPRPWNWPRP was tested, and the “shrunken log2 fold change” value was 0.0868.
RRIRKRPPRLPRPRPRPWQLPRP was tested, and the “shrunken log2 fold change” value was -0.00277.
With RRIRYRPPRLPRPRPRPPCQPRP the “shrunken log2 fold change” value was -0.212.
With RRIRLRPPRLPRPRPRPNPNPRP the “shrunken log2 fold change” value was 0.395.
RRIRERPPRLPRPRPRPDIRPRP was tested, and the “shrunken log2 fold change” value was -0.0427.
With RRIRMRPPRLPRPRPRPNDPPRP the “shrunken log2 fold change” value was -0.516.
In the case of RRIRYRPPRLPRPRPRPATHPRP, the “shrunken log2 fold change” value is reported as -0.318.
With RRIRSRPPRLPRPRPRPWHIPRP the “shrunken log2 fold change” value was -0.0156.
In the case of RRIRDRPPRLPRPRPRPETFPRP, the “shrunken log2 fold change” value is reported as 0.00902.
For RRIRSRPPRLPRPRPRPNYHPRP, the “shrunken log2 fold change” value was -0.742.
For RRIRYRPPRLPRPRPRPYVLPRP, the “shrunken log2 fold change” value was -0.35.
For RRIRARPPRLPRPRPRPICSPRP, the “shrunken log2 fold change” value was 0.251.
With RRIRDRPPRLPRPRPRPVECPRP the “shrunken log2 fold change” value was 0.018.
RRIRRRPPRLPRPRPRPGISPRP was tested, and the “shrunken log2 fold change” value was 0.0929.
For RRIRMRPPRLPRPRPRPTCPPRP, the “shrunken log2 fold change” value was 0.128.
In the case of RRIRCRPPRLPRPRPRPNRSPRP, the “shrunken log2 fold change” value is reported as -0.359.
RRIRVRPPRLPRPRPRPDTVPRP was tested, and the “shrunken log2 fold change” value was -0.186.
RRIRQRPPRLPRPRPRPMGYPRP was tested, and the “shrunken log2 fold change” value was -0.655.
With RRIRTRPPRLPRPRPRPDSIPRP the “shrunken log2 fold change” value was -0.0295.
RRIRGRPPRLPRPRPRPQDDPRP was tested, and the “shrunken log2 fold change” value was 0.114.
For RRIRYRPPRLPRPRPRPLQTPRP, the “shrunken log2 fold change” value was 0.0147.
With RRIRVRPPRLPRPRPRPYASPRP the “shrunken log2 fold change” value was 0.00213.
With RRIRTRPPRLPRPRPRPEKMPRP the “shrunken log2 fold change” value was 0.171.
RRIRCRPPRLPRPRPRPCCAPRP was tested, and the “shrunken log2 fold change” value was 0.242.
With RRIRVRPPRLPRPRPRPPKTPRP the “shrunken log2 fold change” value was 0.152.
With RRIRIRPPRLPRPRPRPLMVPRP the “shrunken log2 fold change” value was -0.942.
With RRIRGRPPRLPRPRPRPNTWPRP the “shrunken log2 fold change” value was 0.237.
In the case of RRIRTRPPRLPRPRPRPFGGPRP, the “shrunken log2 fold change” value is reported as -0.0397.
In the case of RRIRNRPPRLPRPRPRPSATPRP, the “shrunken log2 fold change” value is reported as -0.0839.
